In paper PMC12549891, “Structural mechanisms of assembly, gating, and calmodulin modulation of human olfactory CNG channel” (Nature Communications, 2025):

B1: human CNGA2 subunit (natural protein)
chain: MTEKTNGVKSSPANNHNHHAPPAIKANGKDDHRTSSRPHSAADDDTSSELQRLADVDAPQQGRSGFRRIVRLVGIIREWANKNFREEEPRPDSFLERFRGPELQTVTTQEGDGKGDKDGEDKGTKKKFELFVLDPAGDWYYCWLFVIAMPVLYNWCLLVARACFSDLQKGYYLVWLVLDYVSDVVYIADLFIRLRTGFLEQGLLVKDTKKLRDNYIHTLQFKLDVASIIPTDLIYFAVDIHSPEVRFNRLLHFARMFEFFDRTETRTNYPNIFRISNLVLYILVIIHWNACIYYAISKSIGFGVDTWVYPNITDPEYGYLAREYIYCLYWSTLTLTTIGETPPPVKDEEYLFVIFDFLIGVLIFATIVGNVGSMISNMNATRAEFQAKIDAVKHYMQFRKVSKGMEAKVIRWFDYLWTNKKTVDEREILKNLPAKLRAEIAINVHLSTLKKVRIFHDCEAGLLVELVLKLRPQVFSPGDYICRKGDIGKEMYIIKEGKLAVVADDGVTQYALLSAGSCFGEISILNIKGSKMGNRRTANIRSLGYSDLFCLSKDDLMEAVTEYPDAKKVLEERGREILMKEGLLDENEVATSMEVDVQEKLGQLETNMETLYTRFGRLLAEYTGAQQKLKQRITVLETKMKQNNEDDYLSDGMNSPELAAADEP
notes: CNGA2, human; Expressed from a tri-cistronic construct with P2A peptides between neighbouring genes; remnants of P2A may remain at chain ends (surmise); Two copies stand in the heterotetramer; also called A2L; A2R; source: HEK293F, BacMam, tri-cistronic P2A construct, purified within the CNGA2/A4/B1b complex (anti-Flag, Strep-Tactin, SEC); not shown: Flag, N-terminal, kept

Experiments:
human CNGA2 subunit = molecular target: B1; test: cryo-EM structure; CNGA2/A4/B1b after removal of CaM by EGTA and SEC, incubated with 5 mM cAMP; cAMP-bound open state; conditions: both partners purified
human calmodulin = molecular target: T1, human calmodulin (human, UniProt P0DP23 1-149); test: cryo-EM structure; CNGA2/A4/B1b co-expressed with CaM, complex purified with 2 mM CaCl2 in digitonin; apo (no cAMP), closed state; focused refinement around the CLZ region; conditions: both partners purified
T1 construct: calmodulin, human; The purified CaM (800 nM) and the endogenous HEK293 CaM of the patch-clamp recordings are written with this molecule; also called CaM; Ca^2+/CaM; source: HEK293F, BacMam, co-expressed with CNGA2/A4/B1b, co-purified (anti-Flag, Strep-Tactin, SEC); not shown: Strep, C-terminal, kept

[1] = molecular target: T2, human CNGB1b subunit (shorter CNGB1 variant, amino acids 456-1251) (human, UniProt Q14028 456-1251); test: as above; conditions: both partners purified
T2 construct: CNGB1b, olfactory shorter variant of human CNGB1 lacking the N-terminal GARP domain, amino acids 456-1251 of CNGB1; Expressed from a tri-cistronic construct with P2A peptides between neighbouring genes; remnants of P2A may remain at chain ends (surmise); source: HEK293F, BacMam, tri-cistronic P2A construct, purified within the CNGA2/A4/B1b complex (anti-Flag, Strep-Tactin, SEC); not shown: Flag, …
T2 sequence (Q14028 456-1251, stated change not applied): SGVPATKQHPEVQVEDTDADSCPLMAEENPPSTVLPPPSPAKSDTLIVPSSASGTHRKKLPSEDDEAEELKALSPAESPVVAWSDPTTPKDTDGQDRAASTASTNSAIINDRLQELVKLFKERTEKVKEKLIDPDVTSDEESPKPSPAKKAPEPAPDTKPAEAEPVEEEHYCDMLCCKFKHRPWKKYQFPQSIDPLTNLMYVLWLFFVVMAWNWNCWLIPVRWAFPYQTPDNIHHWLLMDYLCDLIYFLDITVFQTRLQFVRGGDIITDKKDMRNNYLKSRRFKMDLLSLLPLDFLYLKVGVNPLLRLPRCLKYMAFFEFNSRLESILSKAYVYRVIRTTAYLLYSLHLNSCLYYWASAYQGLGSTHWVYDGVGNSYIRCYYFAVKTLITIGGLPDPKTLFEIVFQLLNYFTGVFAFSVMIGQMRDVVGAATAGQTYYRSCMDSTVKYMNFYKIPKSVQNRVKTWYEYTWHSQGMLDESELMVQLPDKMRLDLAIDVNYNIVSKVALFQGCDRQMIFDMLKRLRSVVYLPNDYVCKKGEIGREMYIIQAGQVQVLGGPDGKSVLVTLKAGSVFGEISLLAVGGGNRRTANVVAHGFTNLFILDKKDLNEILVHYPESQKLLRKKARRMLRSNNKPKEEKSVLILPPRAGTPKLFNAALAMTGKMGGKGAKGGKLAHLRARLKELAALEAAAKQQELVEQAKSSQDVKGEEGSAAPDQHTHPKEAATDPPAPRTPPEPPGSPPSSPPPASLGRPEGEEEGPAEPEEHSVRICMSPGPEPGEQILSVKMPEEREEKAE

[2] = molecular target: the molecule itself; test: as above

Row | Binder | binding result (human CNGA2 subunit) | binding result (human calmodulin) | binding result [1] | binding result [2]
1 | human CNGA4 subunit (natural protein, CNGA4, human; Expressed from a tri-cistronic construct with P2A peptides between neighbouring genes; remnants of P2A may remain at chain ends (surmise); source: HEK293F, BacMam, tri-cistronic P2A construct, purified within the CNGA2/A4/B1b complex (anti-Flag, Strep-Tactin, SEC); not shown: Flag, N-terminal, kept) MSQDTKVKTTESSPPAPSKARKLLPVLDPSGDYYYWWLNTMVFPVMYNLIILVCRACFPDLQHGYLVAWLVLDYTSDLLYLLDMVVRFHTGFLEQGILVVDKGRISSRYVRTWSFFLDLASLMPTDVVYVRLGPHTPTLRLNRFLRAPRLFEAFDRTETRTAYPNAFRIAKLMLYIFVVIHWNSCLYFALSRYLGFGRDAWVYPDPAQPGFERLRRQYLYSFYFSTLILTTVGDTPPPAREEEYLFMVGDFLLAVMGFATIMGSMSSVIYNMNTADAAFYPDHALVKKYMKLQHVNRKLERRVIDWYQHLQINKKMTNEVAILQHLPERLRAEVAVSVHLSTLSRVQIFQNCEASLLEELVLKLQPQTYSPGEYVCRKGDIGQEMYIIREGQLAVVADDGITQYAVLGAGLYFGEISIINIKGNMSGNRRTANIKSLGYSDLFCLSKEDLREVLSEYPQAQTIMEEKGREILLKMNKLDVNAEAAEIALQEATESRLRGLDQQLDDLQTKFARLLAELESSALKIAYRIERLEWQTREWPMPEDLAEADDEGEPEEGTSKDEEGRASQEGPPGPE | binds | binds | binds | 
2 | B1 |  |  | binds | binds
